# The Human Domainome abundance scans (Beltran et al. 2025)
# ± gives the uncertainty stated by the source.
# B1: Tripartite motif-containing protein 44, residues 174 to 218; numbered along this chain, Q96DX7 (parent)
# chain: VAKRKCPDHGLDLSTYCQEDRQLICVLCPVIGAHQGHQLSTLDEA
# Variants of: B1
# Test: abundance fitness (aPCA) (normalised: wild type 0, dead -1); higher = more abundant; growth selection in yeast, the domain comes from the species named
# Details: Homo sapiens
row,Variant,abundance fitness
1,VAKRKCPDHGLDLSTYCQEDRQLICVLIPVIGAHQGHQLSTLDEA [C28I],-1.09 ± 0.11
2,VAKRKCPDHGLDLSTYCQEDRQLICVLEPVIGAHQGHQLSTLDEA [C28E],-0.704 ± 0.043
3,VAKRKCPDHGLDLSTYCQEDRQLICVLYPVIGAHQGHQLSTLDEA [C28Y],-0.919 ± 0.082
4,VAKRKCPDHGLDLSTYCQEDRQLICVLCPVEGAHQGHQLSTLDEA [I31E],0.053 ± 0.03
5,VAKRKCPDHGLDLSTYCQEDRQLICVLCPVTGAHQGHQLSTLDEA [I31T],0.052 ± 0.029
6,VAKRKCPDHGLDLSTYCQEDRQLICVLCPVWGAHQGHQLSTLDEA [I31W],-0.13 ± 0.029
7,VAKRKCPDHGLDLSTYCQEDRQLICVLCPVGGAHQGHQLSTLDEA [I31G],-0.002 ± 0.026
8,VAKRKCPDHGLDLSTYCQESRQLICVLCPVIGAHQGHQLSTLDEA [D20S],-0.138 ± 0.032
9,VAKRKCPDHGLDLSTYCQEGRQLICVLCPVIGAHQGHQLSTLDEA [D20G],-0.487 ± 0.026
10,VAKRKCPDHGLDLSTYCQEDRQLICVLCPVIQAHQGHQLSTLDEA [G32Q],-0.491 ± 0.046
11,VAKRKCPDHGLDLSTYCQEDRQLICVLCPVIPAHQGHQLSTLDEA [G32P],-0.22 ± 0.037
12,VAKRKCPDHGLDLSTYCQEDRQLICVLCPVINAHQGHQLSTLDEA [G32N],-0.465 ± 0.055
13,VAKRKCPDHGLDLSTYCQEDRQLICVLCPVICAHQGHQLSTLDEA [G32C],-0.575 ± 0.042
14,VAKRKCPDHGLDLSTYCQEDRQLICVLCPVIWAHQGHQLSTLDEA [G32W],-0.778 ± 0.038
15,VAKRKCPDHSLDLSTYCQEDRQLICVLCPVIGAHQGHQLSTLDEA [G10S],-0.064 ± 0.03
16,VAKRKCPDHVLDLSTYCQEDRQLICVLCPVIGAHQGHQLSTLDEA [G10V],-0.519 ± 0.03
17,VAKRKCPDHPLDLSTYCQEDRQLICVLCPVIGAHQGHQLSTLDEA [G10P],-0.776 ± 0.052
18,VAKRKCPDHNLDLSTYCQEDRQLICVLCPVIGAHQGHQLSTLDEA [G10N],0.118 ± 0.077
19,VAKRKCPDHGLDLSWYCQEDRQLICVLCPVIGAHQGHQLSTLDEA [T15W],-0.2 ± 0.03

row,Variant,abundance fitness
1,VAKRKCPDHGLDLSNYCQEDRQLICVLCPVIGAHQGHQLSTLDEA [T15N],0.014 ± 0.039
2,VAKRKCPDHGLDLSTYCQEDRQLICVLCPVIGAHQGHRLSTLDEA [Q38R],-0.006 ± 0.026
3,VAKRKCPDHGLDLSTYCQEDRQLICVLCPVIGAHQGHLLSTLDEA [Q38L],-0.061 ± 0.03
4,VAKSKCPDHGLDLSTYCQEDRQLICVLCPVIGAHQGHQLSTLDEA [R4S],-0.054 ± 0.032
5,VAKTKCPDHGLDLSTYCQEDRQLICVLCPVIGAHQGHQLSTLDEA [R4T],-0.07 ± 0.032
6,VAKHKCPDHGLDLSTYCQEDRQLICVLCPVIGAHQGHQLSTLDEA [R4H],-0.198 ± 0.051
7,VAKRKCPDHGLDLSTYCQEDRQLICVLCPVIGAHIGHQLSTLDEA [Q35I],-0.045 ± 0.036
8,VAKRKCPDHGLDLSTYCQEDRQLICVLCPVIGAHSGHQLSTLDEA [Q35S],-0.063 ± 0.027
9,VAKRKCPDHGLDLSTYCQEDRQLICVLCPVIGAHAGHQLSTLDEA [Q35A],-0.054 ± 0.027
10,VAKRKCPDHGLDLSTYCQEDRQLICVLCPVIGAHFGHQLSTLDEA [Q35F],-0.162 ± 0.048
11,VAKRKCPDHGLDLSTYCQEDRQLICVLCPVIGAHQGHQLSTLDEP [A45P],0.004 ± 0.049
12,VAKRKCPDHGLDLSTYCQEDRQLICVLCPVIGAHQGHQLSTKDEA [L42K],0.043 ± 0.035
13,VAKRKCPDHGLDLSTYCQEDRQLICVLCPVIGAHQGHQLSTWDEA [L42W],-0.034 ± 0.028
14,VAKRKCPDHGLDLSTYCQEDRQLICVLCPVIGAHQGHQLSTHDEA [L42H],0.056 ± 0.049
15,VAKRKCPDHGLDLSTYCQEDRQLICVLCPVIGAHQGHQLSTDDEA [L42D],0.028 ± 0.049
16,VAKRKCPDHGLDLSTYCQEDRQLICVPCPVIGAHQGHQLSTLDEA [L27P],-0.624 ± 0.055
17,VAKRKCPDHGLDLSTYCQEDRQLICVWCPVIGAHQGHQLSTLDEA [L27W],-0.216 ± 0.032
18,VAKRKCPDHGLDLSTYCQEDRQLICVICPVIGAHQGHQLSTLDEA [L27I],-0.119 ± 0.055
19,VAKRKCPDHGLDLSTYCQEDRQLICVGCPVIGAHQGHQLSTLDEA [L27G],-0.25 ± 0.026

row,Variant,abundance fitness
1,VAKRKCPDHGLDLSTYCQEDRQLICVTCPVIGAHQGHQLSTLDEA [L27T],-0.212 ± 0.033
2,VAKRKCPDHGLDLSTYCQEDRQLICVMCPVIGAHQGHQLSTLDEA [L27M],0.039 ± 0.032
3,VARRKCPDHGLDLSTYCQEDRQLICVLCPVIGAHQGHQLSTLDEA [K3R],-0.073 ± 0.026
4,VAHRKCPDHGLDLSTYCQEDRQLICVLCPVIGAHQGHQLSTLDEA [K3H],-0.08 ± 0.057
5,VAKRKCPDHGLDLSTYCQEDRQLICVLCPVIGAHQDHQLSTLDEA [G36D],-0.071 ± 0.047
6,VAKRKCPDHGLDLSTYCQEDRQLICVLCPVIGAHQMHQLSTLDEA [G36M],-0.245 ± 0.031
7,VAKRKCPDHGLDLSTYCQEDRQLICVLCPVIGAHQFHQLSTLDEA [G36F],-0.193 ± 0.059
8,VAKRKCPDHGLDLSTYCQCDRQLICVLCPVIGAHQGHQLSTLDEA [E19C],-0.063 ± 0.034
9,VAKRKCPDHGLDLSTYCQSDRQLICVLCPVIGAHQGHQLSTLDEA [E19S],-0.048 ± 0.028
10,VAKRKCPDHGLDLSTYCQQDRQLICVLCPVIGAHQGHQLSTLDEA [E19Q],-0.062 ± 0.031
11,VAKRKCPDHGLDLSTYCQEDRQLICVLCPVIGAHQGHQLPTLDEA [S40P],-0.044 ± 0.031
12,VAKRKCPDHGLDLSTYCQEDRQLICVLCPVIGAHQGHQLWTLDEA [S40W],-0.177 ± 0.027
13,VAKRKCPDHGLDLSTYCQEDRQLICVLCPVIGAHQGHQLITLDEA [S40I],-0.079 ± 0.058
14,VAKRKCPDHGLDLSTYCQEDRQLICVLCPVIGAHQGHQLDTLDEA [S40D],-0.032 ± 0.039
15,VAKRKCPDHGLDLSTYCQEDRQLICVLCPVIGAHQGHQTSTLDEA [L39T],0.019 ± 0.033
16,VAKRKCPDHGLDWSTYCQEDRQLICVLCPVIGAHQGHQLSTLDEA [L13W],-0.175 ± 0.028
17,VAKRKCPDHGLDSSTYCQEDRQLICVLCPVIGAHQGHQLSTLDEA [L13S],-0.166 ± 0.03
18,VAKRKCPDHGLDLMTYCQEDRQLICVLCPVIGAHQGHQLSTLDEA [S14M],-0.049 ± 0.032
19,VAKRKCPDHGLDLATYCQEDRQLICVLCPVIGAHQGHQLSTLDEA [S14A],-0.001 ± 0.027
